Reference: PMC9482650, “Quantitative fragmentomics allow affinity mapping of interactomes” (Nature Communications, 2022)

T1: DFNB31_2, Q9P202
T1 sequence (Q9P202 274-371, limits assumed, looked up): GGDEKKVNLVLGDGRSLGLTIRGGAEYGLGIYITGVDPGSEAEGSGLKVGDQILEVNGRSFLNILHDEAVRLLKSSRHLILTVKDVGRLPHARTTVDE

T2: GRIP1_2, Q9Y3R0
T2 sequence (Q9Y3R0 145-248, limits assumed, looked up): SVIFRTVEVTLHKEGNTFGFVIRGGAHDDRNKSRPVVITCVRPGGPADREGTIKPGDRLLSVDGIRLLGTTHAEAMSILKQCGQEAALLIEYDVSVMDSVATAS

T3: GRIP1_7, Q9Y3R0
T3 sequence (Q9Y3R0 999-1096, limits assumed, looked up): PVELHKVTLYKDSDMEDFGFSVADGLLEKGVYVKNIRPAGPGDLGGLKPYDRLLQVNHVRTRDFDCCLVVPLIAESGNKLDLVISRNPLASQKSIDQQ

T4: LRRC7, Q96NW7
T4 sequence (Q96NW7 1440-1537, limits assumed, looked up): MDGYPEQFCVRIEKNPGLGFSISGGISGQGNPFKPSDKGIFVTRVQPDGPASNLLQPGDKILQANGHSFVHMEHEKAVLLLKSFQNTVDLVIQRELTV

T5: MPDZ_10, O75970
T5 sequence (O75970 1624-1722, limits assumed, looked up): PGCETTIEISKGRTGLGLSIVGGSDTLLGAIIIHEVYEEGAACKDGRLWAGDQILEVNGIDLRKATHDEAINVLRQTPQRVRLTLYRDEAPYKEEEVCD

T6: MPDZ_5, O75970
T6 sequence (O75970 695-796, limits assumed, looked up): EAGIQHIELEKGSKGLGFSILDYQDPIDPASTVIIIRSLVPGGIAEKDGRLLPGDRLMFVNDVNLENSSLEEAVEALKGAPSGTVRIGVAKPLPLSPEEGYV

T7: MPP6, Q9NZW5
T7 sequence (Q9NZW5 125-219, limits assumed, looked up): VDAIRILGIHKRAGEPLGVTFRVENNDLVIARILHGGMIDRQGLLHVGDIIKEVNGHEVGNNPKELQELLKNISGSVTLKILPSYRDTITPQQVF

T8: MPP7, Q5T2T1
T8 sequence (Q5T2T1 134-230, limits assumed, looked up): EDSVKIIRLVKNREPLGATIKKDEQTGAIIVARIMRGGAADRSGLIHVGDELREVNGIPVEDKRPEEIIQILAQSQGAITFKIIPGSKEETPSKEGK

T9: RADIL, Q96JH8
T9 sequence (Q96JH8 971-1071, limits assumed, looked up): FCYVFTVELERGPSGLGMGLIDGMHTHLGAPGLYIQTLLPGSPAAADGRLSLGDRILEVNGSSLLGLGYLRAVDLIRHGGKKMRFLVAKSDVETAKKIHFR

T10: RAPGEF6, Q8TEU7
T10 sequence (Q8TEU7 525-625, limits assumed, looked up): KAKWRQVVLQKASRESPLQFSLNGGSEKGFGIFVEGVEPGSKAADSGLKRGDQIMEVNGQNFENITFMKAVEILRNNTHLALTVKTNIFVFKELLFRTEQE

B1: FAM71C, Q8NEG0 (peptide)
chain: STYCDYTIEI
B2: DUSP5, Q16690 (peptide)
chain: RSPVATATSC

biological target: CASK, O14936; assay: holdup assay; design: key: below the threshold = too weak to quantify, mostly under pKd 3.1 to 4; conditions: plain residues with an end cap or a label only (N-terminal biotin on a linker: ado-ado)
Sequence (O14936 487-570): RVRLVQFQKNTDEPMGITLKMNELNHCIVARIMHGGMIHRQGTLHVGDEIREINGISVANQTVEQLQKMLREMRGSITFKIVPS

Row | pKd | Binder
1 | 3.67 | B1
2 | below the threshold | B2

biological target: T1, DFNB31_2, Q9P202; assay: holdup assay; design: key: below the threshold = too weak to quantify, mostly under pKd 3.1 to 4; conditions: plain residues with an end cap or a label only (N-terminal biotin on a linker: ado-ado)

Row | pKd | Binder
3 | below the threshold | B1
4 | below the threshold | B2

biological target: DLG4_3, P78352; assay: holdup assay; design: key: below the threshold = too weak to quantify, mostly under pKd 3.1 to 4; conditions: plain residues with an end cap or a label only (N-terminal biotin on a linker: ado-ado)
Sequence (P78352 306-403): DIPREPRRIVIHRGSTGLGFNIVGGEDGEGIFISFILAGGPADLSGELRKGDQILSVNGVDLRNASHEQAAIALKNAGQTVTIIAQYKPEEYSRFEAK

Row | pKd | Binder
5 | below the threshold | B1
6 | below the threshold | B2

biological target: FRMPD2_3, Q68DX3; assay: holdup assay; design: key: below the threshold = too weak to quantify, mostly under pKd 3.1 to 4; conditions: plain residues with an end cap or a label only (N-terminal biotin on a linker: ado-ado)
Sequence (Q68DX3 1073-1166): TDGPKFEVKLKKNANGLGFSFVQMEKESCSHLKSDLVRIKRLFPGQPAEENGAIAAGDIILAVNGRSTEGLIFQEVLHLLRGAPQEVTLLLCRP

Row | pKd | Binder
7 | below the threshold | B1
8 | below the threshold | B2

biological target: FRMPD4, Q14CM0; assay: holdup assay; design: key: below the threshold = too weak to quantify, mostly under pKd 3.1 to 4; conditions: plain residues with an end cap or a label only (N-terminal biotin on a linker: ado-ado)
Sequence (Q14CM0 67-160): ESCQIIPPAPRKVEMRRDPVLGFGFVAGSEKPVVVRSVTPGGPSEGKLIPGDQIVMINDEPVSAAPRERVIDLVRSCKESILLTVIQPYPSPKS

Row | pKd | Binder
9 | below the threshold | B1
10 | below the threshold | B2

biological target: GIPC2, Q8TF65; assay: holdup assay; design: key: below the threshold = too weak to quantify, mostly under pKd 3.1 to 4; conditions: plain residues with an end cap or a label only (N-terminal biotin on a linker: ado-ado)
Sequence (Q8TF65 112-203): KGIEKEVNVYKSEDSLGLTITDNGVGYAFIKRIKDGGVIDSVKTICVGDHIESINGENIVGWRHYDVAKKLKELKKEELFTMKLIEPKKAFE

Row | pKd | Binder
11 | 3.49 | B1
12 | 3.6 | B2

biological target: T2, GRIP1_2, Q9Y3R0; assay: holdup assay; design: key: below the threshold = too weak to quantify, mostly under pKd 3.1 to 4; conditions: plain residues with an end cap or a label only (N-terminal biotin on a linker: ado-ado)

Row | pKd | Binder
13 | 3.53 | B1
14 | below the threshold | B2

biological target: T3, GRIP1_7, Q9Y3R0; assay: holdup assay; design: key: below the threshold = too weak to quantify, mostly under pKd 3.1 to 4; conditions: plain residues with an end cap or a label only (N-terminal biotin on a linker: ado-ado)

Row | pKd | Binder
15 | below the threshold | B1
16 | below the threshold | B2

biological target: GRIP2_6, Q9C0E4; assay: holdup assay; design: key: below the threshold = too weak to quantify, mostly under pKd 3.1 to 4; conditions: plain residues with an end cap or a label only (N-terminal biotin on a linker: ado-ado)
Sequence (Q9C0E4 648-740): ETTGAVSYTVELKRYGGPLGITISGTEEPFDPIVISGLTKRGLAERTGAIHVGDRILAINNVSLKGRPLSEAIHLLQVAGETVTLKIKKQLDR

Row | pKd | Binder
17 | 4.14 | B1
18 | below the threshold | B2

biological target: HTRA2, O43464; assay: holdup assay; design: key: below the threshold = too weak to quantify, mostly under pKd 3.1 to 4; conditions: plain residues with an end cap or a label only (N-terminal biotin on a linker: ado-ado)
Sequence (O43464 355-458): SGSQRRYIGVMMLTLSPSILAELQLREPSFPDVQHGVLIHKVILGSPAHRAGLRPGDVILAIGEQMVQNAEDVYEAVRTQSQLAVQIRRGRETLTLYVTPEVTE

Row | pKd | Binder
19 | 3.85 | B1
20 | below the threshold | B2

biological target: IL16_1, Q14005; assay: holdup assay; design: key: below the threshold = too weak to quantify, mostly under pKd 3.1 to 4; conditions: plain residues with an end cap or a label only (N-terminal biotin on a linker: ado-ado)
Sequence (Q14005 210-306): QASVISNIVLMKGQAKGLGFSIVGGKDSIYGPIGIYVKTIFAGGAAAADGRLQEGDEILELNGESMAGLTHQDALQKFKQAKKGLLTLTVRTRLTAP

Row | pKd | Binder
21 | below the threshold | B1
22 | below the threshold | B2

biological target: Inadl_2, Q8NI35; assay: holdup assay; design: key: below the threshold = too weak to quantify, mostly under pKd 3.1 to 4; conditions: plain residues with an end cap or a label only (N-terminal biotin on a linker: ado-ado)
Sequence (Q8NI35 238-335): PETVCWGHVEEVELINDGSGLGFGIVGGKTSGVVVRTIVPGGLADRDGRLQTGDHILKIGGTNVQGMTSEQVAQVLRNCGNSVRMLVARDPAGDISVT

Row | pKd | Binder
23 | 3.51 | B1
24 | below the threshold | B2

biological target: Inadl_4, Q8NI35; assay: holdup assay; design: key: below the threshold = too weak to quantify, mostly under pKd 3.1 to 4; conditions: plain residues with an end cap or a label only (N-terminal biotin on a linker: ado-ado)
Sequence (Q8NI35 547-651): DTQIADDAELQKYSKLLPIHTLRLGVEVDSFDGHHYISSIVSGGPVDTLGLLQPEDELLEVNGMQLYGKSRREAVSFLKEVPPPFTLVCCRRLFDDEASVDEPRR

Row | pKd | Binder
25 | below the threshold | B1
26 | below the threshold | B2

biological target: LDB3, O75112; assay: holdup assay; design: key: below the threshold = too weak to quantify, mostly under pKd 3.1 to 4; conditions: plain residues with an end cap or a label only (N-terminal biotin on a linker: ado-ado)
Sequence (O75112 1-94): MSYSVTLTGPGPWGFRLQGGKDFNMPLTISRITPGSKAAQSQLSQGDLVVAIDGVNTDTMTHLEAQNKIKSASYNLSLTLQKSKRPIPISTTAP

Row | pKd | Binder
27 | below the threshold | B1
28 | below the threshold | B2

biological target: T4, LRRC7, Q96NW7; assay: holdup assay; design: key: below the threshold = too weak to quantify, mostly under pKd 3.1 to 4; conditions: plain residues with an end cap or a label only (N-terminal biotin on a linker: ado-ado)

Row | pKd | Binder
29 | below the threshold | B1
30 | below the threshold | B2

biological target: MAGI2_3, Q86UL8; assay: holdup assay; design: key: below the threshold = too weak to quantify, mostly under pKd 3.1 to 4; conditions: plain residues with an end cap or a label only (N-terminal biotin on a linker: ado-ado)
Sequence (Q86UL8 600-682): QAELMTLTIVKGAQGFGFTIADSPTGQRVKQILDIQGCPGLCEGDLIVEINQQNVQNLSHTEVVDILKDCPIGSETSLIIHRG

Row | pKd | Binder
31 | below the threshold | B1
32 | below the threshold | B2

biological target: MAGI2_5, Q86UL8; assay: holdup assay; design: key: below the threshold = too weak to quantify, mostly under pKd 3.1 to 4; conditions: plain residues with an end cap or a label only (N-terminal biotin on a linker: ado-ado)
Sequence (Q86UL8 915-1017): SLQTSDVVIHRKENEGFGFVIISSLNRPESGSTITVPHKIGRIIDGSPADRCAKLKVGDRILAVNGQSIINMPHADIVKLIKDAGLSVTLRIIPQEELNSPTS

Row | pKd | Binder
33 | below the threshold | B1
34 | below the threshold | B2

biological target: MAGI3_2, Q5TCQ9; assay: holdup assay; design: key: below the threshold = too weak to quantify, mostly under pKd 3.1 to 4; conditions: plain residues with an end cap or a label only (N-terminal biotin on a linker: ado-ado)
Sequence (Q5TCQ9 398-503): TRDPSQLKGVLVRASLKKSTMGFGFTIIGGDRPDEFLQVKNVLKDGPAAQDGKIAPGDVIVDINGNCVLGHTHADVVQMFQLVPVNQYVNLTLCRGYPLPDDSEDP

Row | pKd | Binder
35 | below the threshold | B1
36 | below the threshold | B2

biological target: MAST1, Q9Y2H9; assay: holdup assay; design: key: below the threshold = too weak to quantify, mostly under pKd 3.1 to 4; conditions: plain residues with an end cap or a label only (N-terminal biotin on a linker: ado-ado)
Sequence (Q9Y2H9 962-1065): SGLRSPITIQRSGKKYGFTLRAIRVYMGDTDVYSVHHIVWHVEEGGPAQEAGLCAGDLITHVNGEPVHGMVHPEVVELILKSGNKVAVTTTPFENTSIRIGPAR

Row | pKd | Binder
37 | 4.47 | B1
38 | 3.81 | B2

biological target: T5, MPDZ_10, O75970; assay: holdup assay; design: key: below the threshold = too weak to quantify, mostly under pKd 3.1 to 4; conditions: plain residues with an end cap or a label only (N-terminal biotin on a linker: ado-ado)

Row | pKd | Binder
39 | below the threshold | B1
40 | below the threshold | B2

biological target: T6, MPDZ_5, O75970; assay: holdup assay; design: key: below the threshold = too weak to quantify, mostly under pKd 3.1 to 4; conditions: plain residues with an end cap or a label only (N-terminal biotin on a linker: ado-ado)

Row | pKd | Binder
41 | below the threshold | B1
42 | below the threshold | B2

biological target: T7, MPP6, Q9NZW5; assay: holdup assay; design: key: below the threshold = too weak to quantify, mostly under pKd 3.1 to 4; conditions: plain residues with an end cap or a label only (N-terminal biotin on a linker: ado-ado)

Row | pKd | Binder
43 | 3.67 | B1
44 | below the threshold | B2

biological target: T8, MPP7, Q5T2T1; assay: holdup assay; design: key: below the threshold = too weak to quantify, mostly under pKd 3.1 to 4; conditions: plain residues with an end cap or a label only (N-terminal biotin on a linker: ado-ado)

Row | pKd | Binder
45 | 4.6 | B1
46 | below the threshold | B2

biological target: NHERF4_1, Q86UT5-2; assay: holdup assay; design: key: below the threshold = too weak to quantify, mostly under pKd 3.1 to 4; conditions: plain residues with an end cap or a label only (N-terminal biotin on a linker: ado-ado)
Sequence (Q86UT5 other isoform, or with tags, fused parts or gaps): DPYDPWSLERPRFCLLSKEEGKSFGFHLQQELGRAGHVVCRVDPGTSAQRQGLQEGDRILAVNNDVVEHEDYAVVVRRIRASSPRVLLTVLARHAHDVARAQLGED

Row | pKd | Binder
47 | below the threshold | B1
48 | 3.59 | B2

biological target: PDZRN4_1, Q6ZMN7; assay: holdup assay; design: key: below the threshold = too weak to quantify, mostly under pKd 3.1 to 4; conditions: plain residues with an end cap or a label only (N-terminal biotin on a linker: ado-ado)
Sequence (Q6ZMN7 213-318): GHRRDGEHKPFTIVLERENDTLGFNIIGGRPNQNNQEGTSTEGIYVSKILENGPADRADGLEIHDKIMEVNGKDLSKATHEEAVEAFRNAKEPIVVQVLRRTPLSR

Row | pKd | Binder
49 | below the threshold | B1
50 | below the threshold | B2

biological target: PTPN3, P26045; assay: holdup assay; design: key: below the threshold = too weak to quantify, mostly under pKd 3.1 to 4; conditions: plain residues with an end cap or a label only (N-terminal biotin on a linker: ado-ado)
Sequence (P26045 505-587): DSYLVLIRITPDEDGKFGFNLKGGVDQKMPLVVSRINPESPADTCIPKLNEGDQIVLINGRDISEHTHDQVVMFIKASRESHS

Row | pKd | Binder
51 | 4.16 | B1
52 | 4.05 | B2

biological target: T9, RADIL, Q96JH8; assay: holdup assay; design: key: below the threshold = too weak to quantify, mostly under pKd 3.1 to 4; conditions: plain residues with an end cap or a label only (N-terminal biotin on a linker: ado-ado)

Row | pKd | Binder
53 | 4.58 | B1
54 | below the threshold | B2

biological target: T10, RAPGEF6, Q8TEU7; assay: holdup assay; design: key: below the threshold = too weak to quantify, mostly under pKd 3.1 to 4; conditions: plain residues with an end cap or a label only (N-terminal biotin on a linker: ado-ado)

Row | pKd | Binder
55 | below the threshold | B1
56 | below the threshold | B2
